Experimental data taken from patent US5879917.

System: hUBF (RNA polymerase I transcription factor UBF), HeLa (Homo sapiens)
Test: footprint
Conditions: 14 mM MgCl2, 50 mM KCl, pH 7.9, 30 C

Substance | Kd (apparent Kd (half-maximal), cooperative, Hill 2.7) [nM] | Kd (single cis-[Pt(NH3)2]2+ d(GpG) 1,2-intrastrand adduct, central, non-cooperative) [nM]
human rRNA promoter -208 to +78 (EcoRI-BstEII fragment of pSBr208, 286 bp) | 0.018 | 
G^G-100 (100 bp with single central cisplatin 1,2-d(GpG) intrastrand crosslink) |  | 0.06
